Results: IntAct's records for PubMed 23354168

B1: Ephrin-B2 (Mus musculus), P52800 (parent)
chain: MAMARSRRDSVWKYCWGLLMVLCRTAISRSIVLEPIYWNSSNSKFLPGQGLVLYPQIGDKLDIICPKVDSKTVGQYEYYKVYMVDKDQADRCTIKKENTPLLNCARPDQDVKFTIKFQEFSPNLWGLEFQKNKDYYIISTSNGSLEGLDNQEGGVCQTRAMKILMKVGQDASSAGSARNHGPTRRPELEAGTNGRSSTTSPFVKPNPGSSTDGNSAGHSGNNLLGSEVALFAGIASGCIIFIVIIITLVVLLLKYRRRHRKHSPQHTTTLSLSTLATPKRGGNNNGSEPSDVIIPLRTADSVFCPHYEKVSGDYGHPVYIVQEMPPQSPANIYYKV
partner: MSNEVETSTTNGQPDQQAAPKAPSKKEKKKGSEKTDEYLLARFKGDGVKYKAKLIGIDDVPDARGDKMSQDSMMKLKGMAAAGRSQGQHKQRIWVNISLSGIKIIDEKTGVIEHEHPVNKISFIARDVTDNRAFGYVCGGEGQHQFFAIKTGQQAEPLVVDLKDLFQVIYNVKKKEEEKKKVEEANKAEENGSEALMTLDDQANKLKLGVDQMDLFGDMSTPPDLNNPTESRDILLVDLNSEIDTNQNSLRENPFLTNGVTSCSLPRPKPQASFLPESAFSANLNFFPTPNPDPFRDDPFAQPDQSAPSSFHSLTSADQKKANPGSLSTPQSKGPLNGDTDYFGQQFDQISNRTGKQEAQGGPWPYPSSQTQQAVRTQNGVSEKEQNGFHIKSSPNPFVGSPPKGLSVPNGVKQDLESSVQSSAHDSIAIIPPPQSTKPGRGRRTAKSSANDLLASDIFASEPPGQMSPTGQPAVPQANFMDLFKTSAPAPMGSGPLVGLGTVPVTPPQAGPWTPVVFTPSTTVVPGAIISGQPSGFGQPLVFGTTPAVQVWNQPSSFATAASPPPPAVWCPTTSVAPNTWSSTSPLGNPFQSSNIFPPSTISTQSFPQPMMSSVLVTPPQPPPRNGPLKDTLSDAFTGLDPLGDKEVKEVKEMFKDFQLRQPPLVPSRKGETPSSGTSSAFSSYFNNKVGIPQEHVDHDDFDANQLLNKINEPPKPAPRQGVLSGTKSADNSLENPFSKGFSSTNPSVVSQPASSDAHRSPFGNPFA

Variants of: B1
Conditions: with dab2_rat Dab2, O88797

Row | Variant | effect of a mutation on the interaction
1 | MAMARSRRDSVWKYCWGLLMVLCRTAISRSIVLEPIYWNSSNSKFLPGQGLVLYPQIGDKLDIICPKVDSKTVGQYEYYKVYMVDKDQADRCTIKKENTPLLNCARPDQDVKFTIKFQEFSPNLWGLEFQKNKDYYIISTSNGSLEGLDNQEGGVCQTRAMKILMKVGQDASSAGSARNHGPTRRPELEAGTNGRSSTTSPFVKPNPGSSTDGNSAGHSGNNLLGSEVALFAGIASGCIIFIVIIITLVVLLLKYRRRHRKHSPQHTTTLSLSTLATPKRGGNNNGSEPSDVIIPLRTADSVFCPHYEKVSGDYGHPVYIVQEMPPQSPANIYYKS [V336S] | disrupting interaction strength
